Source: US6323001A, “Increasing the trehalose content of organisms by transforming them with combinations of the structural genes for trehalose synthase” (BTG International Ltd., priority 1994, dated 2001)

How the values were obtained:
Format in all cases: biochemical, baker's yeast
[1] = biological target: T1, Tre6Pase activity of intact trehalose synthase (Saccharomyces cerevisiae, UniProt P31688); test: Tre6Pase assay of intact trehalose synthase
T1 construct: Intact trehalose synthase was purified from commercial baker's yeast; made in house; host or cells: commercial baker's yeast (native enzyme purified, not recombinant)
T1 sequence (P31688 1-896): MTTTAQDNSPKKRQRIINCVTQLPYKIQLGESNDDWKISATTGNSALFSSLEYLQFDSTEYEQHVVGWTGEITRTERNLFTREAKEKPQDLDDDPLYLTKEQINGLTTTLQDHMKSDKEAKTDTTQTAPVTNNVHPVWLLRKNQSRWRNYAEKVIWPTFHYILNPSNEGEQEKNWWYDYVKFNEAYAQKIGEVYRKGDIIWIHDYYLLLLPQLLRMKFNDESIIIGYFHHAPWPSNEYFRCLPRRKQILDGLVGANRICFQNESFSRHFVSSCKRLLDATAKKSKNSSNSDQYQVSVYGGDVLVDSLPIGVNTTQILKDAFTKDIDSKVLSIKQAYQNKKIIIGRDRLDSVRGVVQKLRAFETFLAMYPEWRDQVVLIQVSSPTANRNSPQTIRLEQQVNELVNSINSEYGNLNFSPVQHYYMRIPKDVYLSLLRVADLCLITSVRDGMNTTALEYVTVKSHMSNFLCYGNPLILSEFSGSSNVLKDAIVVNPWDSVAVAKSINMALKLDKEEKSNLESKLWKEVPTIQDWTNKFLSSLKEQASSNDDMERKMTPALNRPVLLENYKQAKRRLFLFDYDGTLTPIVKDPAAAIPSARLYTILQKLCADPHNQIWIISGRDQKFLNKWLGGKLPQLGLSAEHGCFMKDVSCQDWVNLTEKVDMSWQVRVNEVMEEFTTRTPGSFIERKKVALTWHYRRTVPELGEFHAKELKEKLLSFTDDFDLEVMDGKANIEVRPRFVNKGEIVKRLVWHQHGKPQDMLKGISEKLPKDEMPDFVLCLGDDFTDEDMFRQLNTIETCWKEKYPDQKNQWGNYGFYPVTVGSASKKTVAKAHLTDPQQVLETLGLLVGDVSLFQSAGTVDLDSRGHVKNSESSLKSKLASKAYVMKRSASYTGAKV
T1 sequence (Q00764 1-495 partner): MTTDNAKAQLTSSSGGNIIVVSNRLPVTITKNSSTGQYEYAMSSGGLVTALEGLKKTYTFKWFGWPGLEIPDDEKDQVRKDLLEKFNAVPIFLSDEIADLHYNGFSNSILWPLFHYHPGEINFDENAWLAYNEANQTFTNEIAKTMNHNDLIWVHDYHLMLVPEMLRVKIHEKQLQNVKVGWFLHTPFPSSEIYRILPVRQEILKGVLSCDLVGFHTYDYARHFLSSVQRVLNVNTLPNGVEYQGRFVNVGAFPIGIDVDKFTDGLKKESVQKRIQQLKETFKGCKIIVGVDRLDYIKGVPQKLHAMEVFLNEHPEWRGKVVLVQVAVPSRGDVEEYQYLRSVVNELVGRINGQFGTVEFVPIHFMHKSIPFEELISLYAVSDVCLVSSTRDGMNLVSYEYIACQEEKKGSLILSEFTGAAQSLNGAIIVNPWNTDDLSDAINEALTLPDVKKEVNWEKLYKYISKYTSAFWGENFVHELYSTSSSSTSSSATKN
T1 sequence (P38427 1-1098 partner): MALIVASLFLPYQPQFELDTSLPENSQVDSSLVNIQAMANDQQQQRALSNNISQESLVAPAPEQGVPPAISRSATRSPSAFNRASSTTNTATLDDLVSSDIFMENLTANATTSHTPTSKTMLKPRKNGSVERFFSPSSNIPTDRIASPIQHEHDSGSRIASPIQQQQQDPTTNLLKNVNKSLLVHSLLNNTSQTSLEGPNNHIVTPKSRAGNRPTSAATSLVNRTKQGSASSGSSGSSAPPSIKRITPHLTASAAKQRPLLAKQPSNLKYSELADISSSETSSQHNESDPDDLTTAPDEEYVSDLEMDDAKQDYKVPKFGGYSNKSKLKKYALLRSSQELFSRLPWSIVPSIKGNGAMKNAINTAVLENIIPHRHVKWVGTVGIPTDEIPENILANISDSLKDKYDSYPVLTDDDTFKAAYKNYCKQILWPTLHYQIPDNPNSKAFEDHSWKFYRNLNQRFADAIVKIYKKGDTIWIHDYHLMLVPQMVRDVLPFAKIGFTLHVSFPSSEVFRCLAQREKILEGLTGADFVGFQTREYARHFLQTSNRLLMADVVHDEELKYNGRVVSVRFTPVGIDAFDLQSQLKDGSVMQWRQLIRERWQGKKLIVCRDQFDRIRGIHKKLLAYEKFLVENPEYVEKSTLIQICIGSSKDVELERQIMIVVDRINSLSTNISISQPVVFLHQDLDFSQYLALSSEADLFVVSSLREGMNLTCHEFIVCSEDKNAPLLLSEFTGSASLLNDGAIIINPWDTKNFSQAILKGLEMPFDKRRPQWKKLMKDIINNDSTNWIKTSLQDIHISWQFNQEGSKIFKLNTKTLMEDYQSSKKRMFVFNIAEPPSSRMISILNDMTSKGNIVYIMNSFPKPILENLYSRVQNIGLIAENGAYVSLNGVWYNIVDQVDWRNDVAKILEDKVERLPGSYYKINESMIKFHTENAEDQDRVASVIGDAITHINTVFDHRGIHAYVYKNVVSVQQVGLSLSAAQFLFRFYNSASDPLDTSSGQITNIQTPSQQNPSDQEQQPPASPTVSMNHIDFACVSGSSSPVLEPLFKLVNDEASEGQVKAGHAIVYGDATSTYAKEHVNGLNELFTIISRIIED
Procedure: (§1) With microbial materials, Tre6Pase and Tre6P synthase standard assays and other kinetic measurements were made as described by Londesborough & Vuorio [(1991) loc. cit.] except that the standard Tre6P synthase assay mixture contained 5 mM F6P unless stated otherwise.
(§2) In one experiment intact trehalose synthase (0.28 Tre6P synthase units, ≈9.4 μg) was incubated with or without 0.5 μg of trypsin at 30° C. in 250 μl of 13 mM HEPES pH 7.0 containing 1 mM MgCl2, 0.5 mM EDTA, 0.5 mM dithiothreitol, 0.2 M NaCl and 0.5 mM benzamidine. Its Tre6P synthase activity was determined at intervals using standard assay mixtures (containing 5 mM F6P) containing no or 4 mM K phosphate pH 6.8, and samples were prepared for SDS-PAGE analysis immediately before and 48 min after addition of the trypsin.
Intact trehalose synthase was prepared as in Example 1. Kinetic assays were done at 30° C. as described in General Methods and Materials.

[2] = biological target: T2, Tre6Pase activity of the 99 kDa polypeptide (Saccharomyces cerevisiae, UniProt P31688); test: Tre6Pase activity of isolated 99 kDa polypeptide
T2 construct: the 99 kDa polypeptide isolated from intact trehalose synthase is a specific trehalose-6-phosphatase; made in house; host or cells: commercial baker's yeast (native; isolated from intact trehalose synthase on phosphocellulose)
Procedure: Intact trehalose synthase has also been fractionated on phosphocellulose in the absence of Triton, and with elution by a simple linear gradient from 0 to 0.6 M NaCl. […] This activity differed from the Tre6Pase activity of intact trehalose synthase in that the ratio of activities at 25 mM phosphate and 50 mM Hepes was between 1.5 and 3 in different experiments (cf, this ratio is 5 to 6 for intact trehalose synthase). Furthermore, during storage of the isolated 99 kDa polypeptide at 0° C., the Tre6Pase activity at 25 mM phosphate decreased and that at 50 mM Hepes increased, until the ratio was about 0.7 after 7 weeks.

[3] = biological target: T3, Tre6P synthase activity of intact trehalose synthase (Saccharomyces cerevisiae, UniProt Q00764); test: Tre6P synthase assay of intact trehalose synthase; conditions: 0.5 μg trypsin, 30° C., first 10 min
T3 construct: Intact trehalose synthase was purified from commercial baker's yeast; made in house; host or cells: commercial baker's yeast (native enzyme purified, not recombinant)
Procedure: as §1
as §2, with “Removal of the N-terminal 325 or so amino acids from the 123 kDa long chain of intact trehalose synthase by treatment with trypsin in vitro produces an enzyme with catalytic properties like those of the truncated enzyme purified by Londesborough & Vuorio [(1991) loc. cit.]. In” for “In”
Truncated trehalose synthase was prepared as described by Londesborough & Vuorio [(1991) loc. cit.] and contained the 57 kDa short chain and 86 and 93 kDa fragments of the long chain. Intact trehalose synthase was prepared as in Example 1. Kinetic assays were done at 30° C. as described in General Methods and Materials.

[4] = biological target: T3, Tre6P synthase activity of intact trehalose synthase; test: Tre6P synthase assay of intact trehalose synthase; conditions: 11 μg trypsin, 25° C., after first 30 min (26% before)

Compound	rate of hydrolysis relative to 0.5 mM trehalose-6-phosphate ([1]; 1 mM G6P, phosphate or Hepes buffer)	hydrolysis by isolated 99 kDa polypeptide [2]	increase in Tre6P synthase activity measured at 4 mM phosphate [3] [fold]	loss of Tre6Pase activity ([1]; limited treatment with trypsin, 30° C.)	Tre6P synthase activity in absence of F6P and presence of 10 mM phosphate, % of standard activity [4] [%]
O=P(O)(O)OC[C@H]1OC(O)[C@H](O)[C@@H](O)[C@@H]1O (some centres unmarked) [Transformant G6P, Glucose 6-phosphate]	less than 1%	not hydrolyzed	–	–	–
trypsin	–	–	4	about 50%	73
